US20080305123A1
Several values for one entry are separate records, joined by “and”; a condition that tells them apart may be missing. Equal entries are not always repeated.

Assays:
[1] = target: PsaA receptor on Detroit 562 human nasopharyngeal epithelial cells (human); test: homologous competitor P4 in solution against P4-coated fluospheres on Detroit 562 cells
[2] = target: PsaA receptor on Detroit 562 human nasopharyngeal epithelial cells (human); test: competition of PsaA-coated bead adherence to Detroit 562 cells by P4 in solution
[3] = target: PsaA receptor on Detroit 562 human nasopharyngeal epithelial cells (human); test: coated fluorospheres on Detroit 562 cells, 1640±210 beads/well
[4] = target: PsaA receptor on Detroit 562 human nasopharyngeal epithelial cells (human); test: competition of PsaA-coated bead adherence to Detroit 562 cells by P4 in solution (second of the three doses, printed 100 µg)
[5] = target: PsaA receptor on Detroit 562 human nasopharyngeal epithelial cells (human); test: coated fluospheres at 1:50 dilution on Detroit 562 cells
[6] = target: PsaA receptor on Detroit 562 human nasopharyngeal epithelial cells (human); test: competitor P4 in solution against P4-coated beads on Detroit 562 cells
[7] = target: PsaA receptor on Detroit 562 human nasopharyngeal epithelial cells (human); test: cold chase with non-fluorescent PsaA-coated spheres against PsaA-coated fluospheres on Detroit 562 cells
[8] = target: PsaA receptor on Detroit 562 human nasopharyngeal epithelial cells (human); test: time course on Detroit 562 cells, n=6, 140 min
[9] = target: PsaA receptor on Detroit 562 human nasopharyngeal epithelial cells (human); test: 2,600 fluospheres/well on Detroit 562 cells, day 1 after labeling
[10] = target: PsaA receptor on Detroit 562 human nasopharyngeal epithelial cells (human); test: 2,600 fluospheres/well on Detroit 562 cells, day 60 after labeling
[11] = target: PsaA receptor on Detroit 562 human nasopharyngeal epithelial cells (human); test: time course on Detroit 562 cells, n=6, 20 min
[12] = target: PsaA receptor on Detroit 562 human nasopharyngeal epithelial cells (human); test: time course on Detroit 562 cells, n=6, 180 min
[13] = target: PsaA receptor on Detroit 562 human nasopharyngeal epithelial cells (human); test: adherence of unsaturated rPsaA fluospheres to Detroit 562 cells with P3 peptide added

With “P4 peptide (PsaA amino acid residues 251 to 278 with DD changed to KR)” the percent reduction in adherence [1] was 89.4% and 87.6% and 88.9%, the % reduction in FU [2] was 23% and the adherence (mean FU) [3] was 19300 FU. The % reduction in FU [4] was 68%, the adherence signal (FU) [5] was > 100000 FU and the percent reduction in adherence [6] was 89.4% and 87.6% and 88.9%.

For “recombinant pneumococcal surface adhesin A (rPsaA) of Streptococcus pneumoniae (from UniProt P0A4G2 20-309) (ligand)”, the % inhibition of adherence of PsaA-coated fluospheres [7] was < 31%, the mean adherence signal (FU) [8] was 16600 FU and the mean adherence (FU) [9] was 30100 FU. For the same substance, the mean adherence (FU) [10] was 30600 FU, the adherence signal (FU) [5] was > 100000 FU and the mean adherence signal (FU) [11] was 2320 FU. For the same substance, the mean adherence signal (FU) [12] was 17500 FU and the fold enhancement of binding by P3 peptide [13] was < 2.5 fold.
